{
  "source": "paper PMC8031885",
  "key": {"[1]": {"biological_target": "gH/gL/gO trimer of HCMV TB40-BAC4 (human cytomegalovirus, strain TB40/E (TB40-BAC4))"}, "[2]": {"biological_target": "gH/gL/gO trimer of HCMV TB40-BAC4 (human cytomegalovirus, strain TB40/E (TB40-BAC4))", "remark": "listed apart in the source"}, "[3]": {"biological_target": "gH/gL/gO trimer of HCMV TB40-BAC4 (human cytomegalovirus, strain TB40/E (TB40-BAC4))", "remark": "listed apart in the source"}, "PDGF-BB [4]": {"biological_target": "PDGF-BB (UniProt P01127)", "sequence (P01127 82-190)": "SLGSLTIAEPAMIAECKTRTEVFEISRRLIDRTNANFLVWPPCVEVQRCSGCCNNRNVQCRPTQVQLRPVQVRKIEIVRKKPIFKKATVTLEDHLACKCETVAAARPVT"}, "PDGF-BB [5]": {"biological_target": "PDGF-BB (UniProt P01127)", "remark": "listed apart in the source"}},
  "data": [
    {"substance": "PDGFRα-Fc delQ294-E298 (from UniProt P16234-1 24-528) (Fc fusion)", "values": [
      {"measurement": "inhibition of HCMV TB40-BAC4-IE-GLuc infection of fibroblasts (Gaussia luciferase read-out), 4,000 to 1 ng/ml; EC50 against wild type (fold higher EC50 than wild type)", "setting": "[1]", "result": 10}
    ]},
    {"substance": "PDGFRα-Fc E298A (from UniProt P16234-1 24-528) (Fc fusion)", "values": [
      {"measurement": "inhibition of HCMV TB40-BAC4-IE-GLuc infection of fibroblasts (Gaussia luciferase read-out), against wild type (fold increase of the inhibitory effect)", "setting": "[2]", "result": 3}
    ]},
    {"substance": "PDGFRα-Fc I139L (from UniProt P16234-1 24-528) (Fc fusion)", "values": [
      {"measurement": "HCMV inhibition EC50 (TB40-BAC4-IE-GLuc, fibroblasts, immediate-early antigen staining)", "setting": "[3]", "result": 6.6, "unit": "ng/mL"}
    ]},
    {"substance": "PDGFRα-Fc T296A (from UniProt P16234-1 24-528) (Fc fusion)", "values": [
      {"measurement": "inhibition of HCMV TB40-BAC4-IE-GLuc infection of fibroblasts (Gaussia luciferase read-out), against wild type (fold increase of the inhibitory effect)", "setting": "[2]", "result": 3}
    ]},
    {"substance": "PDGFRα-Fc delM133-I139 (from UniProt P16234-1 24-528) (Fc fusion)", "values": [
      {"measurement": "inhibition of HCMV TB40-BAC4-IE-GLuc infection of fibroblasts (Gaussia luciferase read-out), 4,000 to 1 ng/ml; EC50 against wild type (fold higher EC50 than wild type)", "setting": "[1]", "result": 10}
    ]},
    {"substance": "PDGFRα-Fc delN204-Y206 (from UniProt P16234-1 24-528) (Fc fusion)", "values": [
      {"measurement": "inhibition of HCMV TB40-BAC4-IE-GLuc infection of fibroblasts (Gaussia luciferase read-out), 4,000 to 1 ng/ml; EC50 against wild type (fold higher EC50 than wild type)", "setting": "[1]", "result": 10}
    ]},
    {"substance": "PDGFRα-Fc Y206F (from UniProt P16234-1 24-528) (Fc fusion)", "values": [
      {"measurement": "HCMV inhibition EC50 (TB40-BAC4-IE-GLuc, fibroblasts, immediate-early antigen staining)", "setting": "[3]", "result": 5.9, "unit": "ng/mL"}
    ]},
    {"substance": "PDGFRα-Fc I139A (from UniProt P16234-1 24-528) (Fc fusion)", "values": [
      {"measurement": "inhibition of HCMV TB40-BAC4-IE-GLuc infection of fibroblasts (Gaussia luciferase read-out), against wild type (fold decrease of the efficiency)", "setting": "[2]", "result": 4},
      {"measurement": "reduction of Akt phosphorylation induced by 50 ng/ml PDGF-BB in fibroblasts, phospho-Akt immunoblot, 4,000 ng/ml PDGFRα-Fc", "setting": "PDGF-BB [4]", "result": 20, "unit": "%"},
      {"measurement": "reduction of p-Akt signal induced by 6 ng/ml PDGF-BB in fibroblasts, quantitative immunoblot, 4000 ng/ml PDGFRα-Fc", "setting": "PDGF-BB [5]", "result": 80, "unit": "%"}
    ]},
    {"substance": "PDGFRα-Fc Y206A (from UniProt P16234-1 24-528) (Fc fusion)", "values": [
      {"measurement": "inhibition of HCMV TB40-BAC4-IE-GLuc infection of fibroblasts (Gaussia luciferase read-out), against wild type (fold decrease of the efficiency)", "setting": "[2]", "result": 4},
      {"measurement": "reduction of Akt phosphorylation induced by 50 ng/ml PDGF-BB in fibroblasts, phospho-Akt immunoblot, 4,000 ng/ml PDGFRα-Fc", "setting": "PDGF-BB [4]", "result": 60, "unit": "%"}
    ]},
    {"substance": "PDGFRα-Fc I139V (from UniProt P16234-1 24-528) (Fc fusion)", "values": [
      {"measurement": "HCMV inhibition EC50 (TB40-BAC4-IE-GLuc, fibroblasts, immediate-early antigen staining)", "setting": "[3]", "result": 9.5, "unit": "ng/mL"}
    ]},
    {"substance": "PDGFRα-Fc Q294A (from UniProt P16234-1 24-528) (Fc fusion)", "values": [
      {"measurement": "inhibition of HCMV TB40-BAC4-IE-GLuc infection of fibroblasts (Gaussia luciferase read-out), against wild type (fold increase of the inhibitory effect)", "setting": "[2]", "result": 3}
    ]}
  ]
}
